This is an account of results in the DeepSol protein solubility set.

The series in a line: soluble on expression in E. coli; label from the status in PepcDB or PDB records.
Regarding “MGSDKIHHHHHHMNSPKNSLYEEKSGHYYNAVNPNLLKHIKKEWKEVLDIGCSSGALGAAIKENGTRVSGIEAFPEAAEQAKEKLDHVVLGDIETMDMPYEEEQFDCVIFGDVLEHLFDPWAVIEKVKPYIKQNGVILASIPNVSHISVLAPLLAGNWTYTEYGLLDKTHIRFFTFNEMLRMFLKAGYSISKVDRVYVDHKMYEPLIEELYGICKKYRLGSGFMAETVVFQYIIEAEKSQL”, the “soluble on expression in E. coli” value is “not soluble”. The value for “MGSDKIHHHHHHMNTEHAAYQIADELGGLELLNAHYHKQNFSRHTHEGYTVGVIETGAQRFYRTGGNHVAPKHSIILVNADEVHNGCSATEGGWSYRAMYPVPAQFAGINSERAANSGAPYFPEPVVYDPELAELLRLTFTTLDTSDNRLLRESLVYSSLTQLMARHGKHRPSDNLAAMAKPALALVKSFIDDHPAADISLEELATLAGLSPYYLLKQFQRYYGLPPHAYQIQARVRLAKGKIKQGTRLLDVALDCGFHDQSHLNRHFKKTVGVTPGQFAKEIGRNIIQA” was “not soluble”; that for “MGSDKIHHHHHHMNTRDLDYFRALVDCQNYTMVAKQFAVSQPAVTQAIHRLEKEFAVKLVIQDRRHQQTNITRAGQLLYKNARQIQASLQLAHREIQSTLQTDIRFGLPPIIGTLYFPQIAEKLLQNGLLQQLKITETGSDELLRKLVHGEINIALLGSYLPFDLPTVRAVHLGARPFSIIVSPQNSLAKQAAVSFKNLGQAQFIGLDGKYVHPQAFRAYCDFAGVHPEVIYRTPDISWVKALVKANLGISLLVRDVVKADDGVVCLEIKDQLPVSFNISVVTRAGYLPTTDEQRFIDQLLKMKI” was “not soluble”. The value for “MGSDKIHHHHHHMNTSYLIDFLENKQVSTITKTKHSYLTYHGLEEGYTYVLKKGIVKTSIILKNGREFNLSYINSTDIVSLLRDEISAYTASPLNVRIESDEAIFYRIPRKTFWDYVNHDTHLQDYVRDYYRIKLTQNIKSLQWMTMNGKKGAVCAFIYKLIDIFGRRGATGILIDFPITNEEIANFCGISTRNSVNRIIHDLKEQHVIDIKNQKIFIYDENYLREFTI” was “not soluble”; that for “MGSDKIHHHHHHMNVAERKKQTVVSSGISGLDEILRGGLPASNLYIVQGAPGSGKTTAALQFLRAGVALGEPCIYVSLSQTRAELEAIALSHGWTLDGIRVEELSASDSINRAADQTIFQTTELRLDETRKAIESAIEEHKPSRLVYDSLLEIRLITADSPRFRRELIAFKAFLAQRNIVALLLDTQTSETDRTGEEVDGIAHGVIRLDKSLEEYGGVRRRIEVSKMRGVPVADGYHDMAIREGEGVVVFPRIVPGAAARTVKPQLIKSGVDTLDEMFGGGQESGTTTLVIGQAGTGKSTMASLYATAALKRGESVGLFLFEERIETFFRRSEGLGMALRQFHEDGQLILRDFNPNEISPGEFGQIVQQSVNSEKVKVVVIDSFTGYLNSLPHREKAVRDIQSLLKYLARAGVLTILIVAQHGLLGQGVGIDVDVSFLGDTVLLLRIAEHEGRLRRSITVVKKRHGPHDLDVRELFIQSSGVSVIAYNPLPEV” was “not soluble”; that for “MGSDKIHHHHHHMNVHKIVWQEGMLLRPQHLQHNDRYYDNQMKARTQLLGSYNWGFLALELDRQFLNMGKLVISQASGVLPDGSLFELGGNTEPLALDVPPNTSNVPIYLALPLVTGNHIEARRPEQAEVLARYTAYDLEVADSNAGEDSMVQVSCARPDFRLLLGEQQSDQAYVKLKVAVVLDSTPDGVISLDPDFVPSYLHAHASAYLLSCLKEVISMLGHRGDTIAERIRSNGKVGGAEVGDFMMLQLINRTELLLRHYLGLEQVHPEQLYRVLLTMLGDLATFGSESKRPRLDSRYQHSDQGASFRRLMEAIRQVLSMVLEQHAIELPLQARQYGILVSPLHDHKLLGSASFVLAASANCESEELRQRLPAHLKVGAVEHIRQLVNLHLPGIRVKPLPVAPRQIPFHSNKTYFILEPNAEDMAQLERSGGFAFHVSGEFSELELKFWAIRN” was “not soluble”. Next, “MGSDKIHHHHHHMNYFATVARGLETLAAQELEQLGAHSVEPGFCGVAFEGDRTLLYRVNLWARLPFRILVDIHEFPCLDAKDLYRGIQTIDWQNYLTPDMTLAVNVTGKNAHLNHSHFTSLQVKNAIVDQQQEKLGERSNVELHEPDVRVNVHIERDFCTVKLDSSGNSLHRRGYRPAVGSAPLKESLAAALIQLSGWKQDQMFYDPLCGSGTLPLEASLKALNIAPGLFRESFGFENWLDFDLVLLEKLLQEAKDSQLDTLPAPIWGSDHDENVIEQAINNAQNCGVDNHVWFSQMELADVVAPADSGILLCNPPYGERLGRDSDLGAFYKLLGDVLKQRFKGWTAFVLSGNKELSQSIGLKSSKRIAVYNGALPCQLMKYELY”: “not soluble”. With “MGSDKIHHHHHHMNYIYSFINGDFMRFFNREKEITEILSILEGNPDLVYFVYGPLNSGKTALISEIINNRIDKNKYVVFYINLRGIFISKYKDFIEVLFEEYEEDRKPVEIIKSLIKDVPSLCGIPTPKNTLEEILKKKTTKNVFKYITNVLMDIKKEGKQPIIIIDELQKIGDMKINGFLIYELFNYFVDLTKELHLCHVFCLSSDSLFIEQVYSEAMLKDRVDYILVDDFDKETALKFMDFLAEEILNKKLSDDEKELIYSYVGGKPILIIKVIKKLKIKGLKETLDEMLRDEMQKLKYFLEDIKEKDEESYNKIADALEIFKDSYEIEDIKIPKNIREFLVKKNILFLNPQKGTLKPQSYLVWNAIKRLL”, the “soluble on expression in E. coli” value is recorded as “not soluble”.

With “MGSDKIHHHHHHMNYKTLVMKILIINQHSMNHGDEAAGKALIRTLYDRGFQDIAVSYNMNDFDASCLFKYKNVKQILPTKKKARGLDKITKLYLKCPCFITRFLTLMYLQRRREVKMIKEANIVISAPGGVNMGLYRDYGYVWRLKEVLYQGKSLVIYSPSIGPFTTNDFFRKIAKEILTRSTFVSLRDTQSYRYAEDLSVHYIQSIDTAYLETPRMDLPLELLNLLPKEYVVLVPNELYSWHIDYFHYDKRSIDRFYSSLIDKFTSNGLTVVLLPQLFYQPNMEDEDYFNRLKAENEKVIVIPTYYDSDIQQAIIKRAQFVVGARYHTIVFSINNETPFVCLSYEHKMKNMLEILSLDSYSIDISYAFENHKIVIDKIWKMYLDRVSVLNVLYDGKKKAKLLARKTFDFLIKKLRSM”, the “soluble on expression in E. coli” value is “not soluble”. The value for “MGSDKIHHHHHHMPEPDPLRIKTFTTPKDLGEWLKVNHGSERELWVKIYKKNTGIESVTWNDVVIEVLCWGWIDGIKKSIDDQAYLQRITPRKMRSNWSKRNTEHAERLISEERMMESGLVHIRAAKSDGRWENAYVVSEMEVPADFLAALENKSNAKAFFETLNKSSRYVIAYGLISAKKPETRLRRFEKFMNMLVHEEKPK” was “not soluble”. Next, “MGSDKIHHHHHHMPFLEIRLTKESGRIYEEHSHPMLSIGVMLEGETQFFLQGEEFRLQTGMLAVIPPRMAHACNPLPSQTRSYFILHLSLDFCLEIQGRLFNEGGQNLLPLRAPRIFDPMMYQGLTSLIQSLLKGYDSLKGEAFWGWCERFFARYTLEVSSRGDALISEVAEYLEGDVEEASLAFLSKRFQINPYTLERRFKKAYGTTPKRYHTDARLHRLKKLLRQGIPLALCAQYGGFSDQSHFQRFFKRRVALTPREYQLNFVQ”: “not soluble”; “MGSDKIHHHHHHMPIYVYWGEDDFAMEKAIAVLRDHVLDPNWISFNYTAFTPDQADAAIQALNQVMTPTFGAGGRLVWLINTTLYQHCPENVLAELVRSLSVIPENSFLLLSSRNKPDERLKSTKLLKQFATEFREFPLIPPWKTELLVQSVNQVAQTVGVKLTANTAQLLAESVGNDTRLLYNEIEKLRLYAYGSNKPLDVDTVTKLVRNTTQNSLQLAAAIRIGDTAKALTTLADMINASEPGLRIVATLIGQFRTWLWVKIMIESGERNQQAIAIAADIGNPKRIYFLQQEIKLLSVQQLISCLPLLLELEVSLKQGASEMSTFQTKVIELCQVCQGS”: “not soluble”; “MGSDKIHHHHHHMPKKSFAQDCLYTAIMRLMREKDVDDITVKELVLKAGVARSTFYRYYTQPMDVLRDYLRPFNHGNAHLDDKDDKKVYLRRFYQYYTGHSELIYTLVQANKTEFLRETISCHILEVFSPMMTNKGVSPFLQKASVGLCVETLILWIVNDRKEKIEEMTDTVHNMVAVVERVS”: “not soluble”. For “MGSDKIHHHHHHMPKPTKIVVLLKGYPRLSETFIAQELLGLEQAGFALELVAMRRPTDKKRHPVHDEIQAPVHYLPEYLHEEPGRVLKALWAVRRLPGFRPVLTQFFKDLRRDFSRNRFRRLGQAMVLVAEWPGKADWLHAHFIHTPASVAFYASLLGSRGFSVSAHAKDIWTSESWDLADKLAHATWVVTCTKVGFDRLSALADGRGSVHLSYHGLDLDRFPHFEGVRPARDGSDTADPLRLLSVGRAVKKKGYDVLLRALSALPADLNWHFTHIGGGDELVRLQALADQLGIASRITWKGAMDQRDVLTHYRDSDLFTLACRITADGDRDGLPNVLVEAASQGLMPVSTTVSGISELFVDGENGLLVEPDDAQALAVALEKAMRDPALRARLGSAAEGKVRRDFDYRNSIRDLTDLFSGRQ”, the “soluble on expression in E. coli” value was “not soluble”. Next, “MGSDKIHHHHHHMPKRRLPSLNALRAFESAARNQSMTRAAEELCVTHSAISRHVAKLEDYLNAKLFERGHQQVVLTKRGAAYASRLQVLFDQIQDVTAEYFYARPDNASLRIGVLSTFAMRFLIPRLARFKKLYPEITLQVESAHEHVSPRDEEVDVAIWFGNGDWPGLVSEHLFHEELVPVGSPTLLAGHELGNPDDLESFLLLHAAARHDDWQRWLSATGATRVDGYKGLKLEYSGLAYQGAVDGLGLAMAQTLFVQEDLANRRLVAALPQRVKTGRSYYLVHNEMKSEQPVILRFSEWLKDEVRKTIEEIDRTQAEHIEVV”: “not soluble”; “MGSDKIHHHHHHMPKSVRAENISRILKRIMKSPVSRVELAEELGLTKTTVGEIAKIFLEKGIVVEEKDSPKGVGRPTKSLKISPNCAYVLGIEVTRDEIAACLIDASMNILAHEAHPLPSQSDREETLNVMYRIIDRAKDMMEKLGSKLSALTVAAPGPIDTERGIIIDPRNFPLSQIPLANLLKEKYGIEVWVENDADMGAVGEKWYTKRDDSFAWILTGKGIGAGIIIDGELYRGENGYAGEIGYTRVFNGNEYVFLEDVCNENVVLKHVLSMGFSSLAEARDSGDVRVKEYFDDIARYFSIGLLNLIHLFGISKIVIGGFFKELGENFLKKIKIEVETHLLYKHSVDMSFSKVQEPVIAFGAAVHALENYLERVTTS”: “soluble”.

Consider “MGSDKIHHHHHHMPLPIRDLYTFFVVARAGAMQAAAHELGVTPGAISQRIRSIEDRYGKRLFVRSRDGVSLTASGKALWKEVKSAFAQIETSHNRHIGKDGKTILRISAAPTFAHSFLVSNLASFNEDHPGIRFNIETEDRLADLRSEPIDLAIRHGLGDYAGLRSEWLCAPELIVVGSPALLESQHPVKEPEDCLRFTLLPDETGLDWALWFEAHRVNAVAPSYGTAFKDGFLTVKAASRGQGLALINDIYVREELADGRLVQLLPGSWPTKFAYYAVALPETFDRPAVKAFVKWLCAACAVEQMHQK”, for which the “soluble on expression in E. coli” value is “not soluble”. Regarding “MGSDKIHHHHHHMPLSSVSRPSTQIQAQSTGKIFIIGLPRTGTTSVCVALLEQGLKVAHQGFTQQSFYQADAIADAPVFSDFKQLDGLFPGAKFVYLSRDIAPWIISMQMLLGRMLIHLDEHTGRFHPIMKRSFNHSFKLNLVTNPFDEVHLKQCYLEHQQTVEEYFTGRNDLLKININQVGSLNRLLEFIELAPQDLASSIKSAPLNFPHLNIGRNVASWDEYKHPNKVSANLSGPNKRKFFDYTLS”, the “soluble on expression in E. coli” value is “not soluble”.
